Data as given in patent publication US20220242973A1 (Molecular Partners, published 2022).
Read-outs that look alike come from different tables or passages of the source.

T1: Recombinant human FAP (fibroblast activation protein) (human, UniProt Q12884 26-760)
T1 construct: Bought soluble recombinant protein; Chemically biotinylated for the HTRF screen; also called hFAP; biotinylated human FAP
T1 sequence (looked up): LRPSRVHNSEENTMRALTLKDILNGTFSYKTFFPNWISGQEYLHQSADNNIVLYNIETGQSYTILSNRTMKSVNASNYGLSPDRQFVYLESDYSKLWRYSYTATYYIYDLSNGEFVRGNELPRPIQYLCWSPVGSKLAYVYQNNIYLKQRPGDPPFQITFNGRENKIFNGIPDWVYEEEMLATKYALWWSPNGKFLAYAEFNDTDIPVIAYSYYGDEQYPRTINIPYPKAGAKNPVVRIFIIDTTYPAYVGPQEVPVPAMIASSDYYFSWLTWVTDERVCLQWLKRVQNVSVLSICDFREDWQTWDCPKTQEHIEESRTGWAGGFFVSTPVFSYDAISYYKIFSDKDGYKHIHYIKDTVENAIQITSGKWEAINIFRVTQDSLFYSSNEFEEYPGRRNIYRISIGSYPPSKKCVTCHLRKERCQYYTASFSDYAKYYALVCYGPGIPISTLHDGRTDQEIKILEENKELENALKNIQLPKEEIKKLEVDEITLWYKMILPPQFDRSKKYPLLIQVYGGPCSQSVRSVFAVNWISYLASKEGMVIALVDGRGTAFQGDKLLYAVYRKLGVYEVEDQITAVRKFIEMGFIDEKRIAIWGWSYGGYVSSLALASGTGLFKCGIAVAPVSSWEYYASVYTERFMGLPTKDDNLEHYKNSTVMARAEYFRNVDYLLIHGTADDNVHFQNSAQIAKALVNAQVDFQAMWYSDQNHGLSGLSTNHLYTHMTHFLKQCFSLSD

T2: Histidine-tagged cynomolgus FAP (cynomolgus monkey (Macaca fascicularis), UniProt Q12884 30-760 (human entry))
T2 construct: the tie between the two is by these matching words only; also called cFAP; cyno FAP
T2 sequence: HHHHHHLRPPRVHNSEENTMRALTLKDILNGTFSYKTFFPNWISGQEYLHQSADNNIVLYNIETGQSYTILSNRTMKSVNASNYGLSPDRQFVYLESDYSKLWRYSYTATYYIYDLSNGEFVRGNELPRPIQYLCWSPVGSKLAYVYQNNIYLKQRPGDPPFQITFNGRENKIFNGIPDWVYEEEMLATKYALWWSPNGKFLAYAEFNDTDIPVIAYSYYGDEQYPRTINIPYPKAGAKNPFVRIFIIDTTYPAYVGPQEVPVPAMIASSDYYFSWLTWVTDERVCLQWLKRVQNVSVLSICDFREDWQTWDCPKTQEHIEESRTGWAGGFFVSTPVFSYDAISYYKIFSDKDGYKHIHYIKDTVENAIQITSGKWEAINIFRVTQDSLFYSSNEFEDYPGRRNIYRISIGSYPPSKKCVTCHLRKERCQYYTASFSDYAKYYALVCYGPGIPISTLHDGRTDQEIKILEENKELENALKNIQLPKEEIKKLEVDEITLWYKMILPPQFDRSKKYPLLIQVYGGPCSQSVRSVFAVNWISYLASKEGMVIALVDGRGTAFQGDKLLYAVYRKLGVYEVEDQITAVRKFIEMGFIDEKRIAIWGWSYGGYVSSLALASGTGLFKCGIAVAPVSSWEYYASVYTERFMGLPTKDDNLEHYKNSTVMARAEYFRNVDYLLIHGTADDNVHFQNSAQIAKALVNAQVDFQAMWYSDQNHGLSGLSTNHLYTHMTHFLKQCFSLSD


Key:
[1] = molecular target: T1, Recombinant human FAP (fibroblast …); test: SPR (ProteOn), human FAP immobilized on GLC chip
Summary of the method: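 Human FAP amine-coupled (pH 5.3 acetate) to about 2000 RU. Ankyrin repeat proteins injected at 0.5–30 nM in PBS pH 7.4 with 0.005% Tween 20 at 100 μl/min, then ≥25 min dissociation, with double referencing. KD calculated from the fitted on- and off-rates.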

[2] = molecular target: T1, Recombinant human FAP (fibroblast …); test: SPR (ProteOn), human FAP immobilized on GLC chip; remark: listed apart in the source
Protocol: (§1) Briefly, human FAP was diluted in 10 mM Na-acetate pH 5.3 buffer and covalently immobilized on a GLC chip (BioRad) to a level of around 2000 resonance units (RU). The interaction of ankyrin repeat protein and hFAP was then measured by injecting 200 μl running buffer (PBS, pH 7.4 containing 0.005% Tween 20®) containing serial dilutions of ankyrin repeat proteins covering a concentration range between 30 nM and 0.5 nM (on-rate measurement), followed by a running buffer flow for at least 25 minutes at a constant flow rate of 100 μl/min (off-rate measurement). The regeneration was performed using 15 μl of 10 mM Glycine pH 2 followed by 15 μl of 124 mM H₃PO₄. The signals (i.e. resonance unit (RU) values) of the interspots and a reference injection (i.e. injection of running buffer only) were subtracted from the RU traces obtained after injection of ankyrin repeat protein (double-referencing). Based on the SPR traces obtained from the on-rate and off-rate measurements, the on- and off-rate of the corresponding ankyrin repeat protein—FAP interaction was determined.
(§2) Dissociation constants (KD) were calculated from the estimated on- and off-rates using standard procedures known to the person skilled in the art. […] Table 4 provides the KD values on cFAP and hFAP of some of the selected ankyrin repeat proteins as examples.

[3] = molecular target: T2, Histidine-tagged cynomolgus FAP; test: SPR (ProteOn), cynomolgus FAP immobilized on GLC chip
Protocol: as §1, with “cyno” for “human”, “pH5.3” for “pH 5.3”, “cFAP” for “hFAP”, “25” for “30”, “0.3” for “0.5”
as §2

Binder	Kd [1] [nM]	Kd [2] [nM]	Kd [3] [nM]
DARPin® protein #34 (designed binder) MRGSHHHHHHGSDLGKKLLEAARAGQDDEVRELLKAGADVNAKDVLGWTPLHLAAFEGHLEIVEVLLKAGADVNAKDKKGWTPLQLAARTGHLEIVEVLLKAGADVNAKDHIGATPLHLAAWQGHPEIVEVLLKAGADVNAQDKSGKTPADLAADAGHEDIAEVLQKAA	0.177	0.177	0.071
DARPin® protein #35 (designed binder) MRGSHHHHHHGSDLGEKLLVAALYGQDDEVRELLKAGADVNAKDQWGLTPLHKAALQGHLEIVEVLLKAGADVNAKDERGHTPLHWAARFGHLEIVEVLLKAGADVNAQDQKGYTPADLAALWGHEDIAEVLQKAA	0.21	0.21	0.15

Results, then the binder that gave them:

Kd [1] [nM]	Kd [2] [nM]	Kd [3] [nM]	Binder
0.118	0.118	0.101	DARPin® protein #36 (designed binder) MRGSHHHHHHGSDLGKKLLEAARAGQDDEVRILLAAGADVNAKDVLGWTPLHLAAFEGHLEIVEVLLKAGADVNAKDKKGWTPLQLAARTGHLEIVEVLLKAGADVNAKDHIGATPLHLAAWQGHPEIVEVLLKAGADVNAQDKSGKTPADLAADAGHEDIAEVLQKLN
0.22	0.22	0.155	DARPin® protein #39 (designed binder) MRGSHHHHHHGSDLGKKLLEAARAGQDDEVRELLKAGADVNAKDEWGKTPLHLAAIRGHLEIVEVLLKAGADVNAKDTHGITPLHLAAFVGHLEIVEVLLKAGADVNAKDYLGRTPLHIAAAKGHLEIVEVLLKAGADVNAQDKSGKTPADLAADAGHEDIVEVLQKLN
0.14	0.14	0.112	DARPin® protein #37 (designed binder) MRGSHHHHHHGSDLGEKLLVAALYGQDDEVRILLAAGADVNAKDQWGLTPLHKAALQGHLEIVEVLLKAGADVNAKDERGHTPLHWAARFGHLEIVEVLLKAGADVNAQDQKGYTPADLAALWGHEDIAEVLQKLN
0.058	0.058	0.047	DARPin® protein #38 (designed binder) MRGSHHHHHHGSDLGKKLLEAARAGQDDEVRELLKAGADVNAKDEVGRTPLHLAAQIGHLEIVEVLLKAGADVNAKNRWGVTPLHVAAWVGHLEIVEVLLKAGADVNAKDQQGATPLHLAAIRGHLEIVEVLLKAGADVNAQDKSGKTPADLAADAGHEDIAEVLQKLN
